This passage reports binding result and Kd results from paper PMC9107221 (Journal of Nanobiotechnology, 2022).

In general, Kd refers to the free concentration of one partner at which half of the binding sites on the other are occupied at equilibrium, for simple one-to-one binding. A lower Kd goes with tighter binding.

Changes are numbered by the printed parent chain.

T1: P61-GEEPNYQEEW (Chikungunya virus, SL-CK1)
T1 construct: 10-mer of the Chikungunya/SL-CK1 E2 glycoprotein, domain C; printed as residues 331 to 340 in the results and as 301-310 in the discussion
T1 chain: GEEPNYQEEW

T2: P10-LKIQVSLQIG (Chikungunya virus, SL-CK1)
T2 construct: 10-mer of the Chikungunya/SL-CK1 E2 glycoprotein, residues 46 to 55, domain A
T2 chain: LKIQVSLQIG

B1: 1H7 (Nb-1H7) (VHH)
VHH: AVQLVESGGGLVQAGGSLRISCLASGPPFTDYTMGWFRQAPGKEREFVARITNHGGGTHYADSVKGRFTISRDYATNTVYLQMNSLKPEDTAVYYCAADRGAVYGTREDLYDYWGQGTQVTVSS
B2: 4H6 (Nb-4H6) (VHH)
VHH: B1 VHH with A14P, R19G, L23V, M34L, D73E
B3: 1G6 (Nb-1G6) (VHH)
VHH: AVQLVESGGGLVQAGGSLRLSCAASGRTFSTYTMGWFRQAPGKEREFVARIIENTGNIYYADSVKGRFTISEDNAKNTLYLQMNNLKPEDTAVYYCVGDRGAVYGTRPDLYDHWGQGTQVTVSS
B4: 2A3 (Nb-2A3) (VHH)
VHH: AVQLVESGGGLVPTGGSLRLSCTASGRTDNLYTVGWFRQAPGKERELIARITEKGGPTYYADSVKGRFSISTHKSKNAIYLQMNSVKPEDTAVYYCVADRGTVYGTREDLYDYWGQGTQVTVSS
B5: 1E1 (Nb-1E1) (VHH)
VHH: AVQLVESGGGLVETGESLRLSCAASGRTIENYHVGWFRQTSGPEREFLAATSRGNGISTIADSVKGRFTISRDNAKNTVYLQMNALKPEDTAVYICAADDANFVNYRSYRAWDNWGQGTQVTVSS
B6: 2B5 (Nb-2B5) (VHH)
VHH: B5 VHH with E13Q, T14A, E16G
B7: 1A12 (Nb-1A12) (VHH)
VHH: AVQLVESGGGLVQAGGSLRLSCAASGRALTSGTMGWFRQAPGKEREFVARANVKGDGTFYADAVKGRFTISRDYAKNTVYLQMNNLKPEDTAVYFCAADRGTVYGTSEDLYDYWGQGTQVTVSS
B8: 1F1 (Nb-1F1) (VHH)
VHH: AVQLVESGGGLVQAGGSLRLSCAASGRSFSAYTMAWFRQAPGKEREWMASIVRSGGPTYYADSVKDRFTISRENARNTVYLQMNSLKPEDTAVYYCAADLGWTYSRSPELFGSWGQGTQVTVSS
B9: 2B4 (Nb-2B4) (VHH)
VHH: B8 VHH with F29S
B10: 1H3 (Nb-1H3) (VHH)
VHH: AVQLVESGGGLVQAGGSLRLSCAASVHTFTMPTMGWFRQAPGKGRELVARFNANINSTYYGDSVKGRFTISRDFAKNTVYLHMSSLRPEDTAVYYCVADRGVVFGTREDLYDYWGQGTQVTVSS
B11: 4C1 (Nb-4C1) (VHH)
VHH: B10 VHH with G42E, V103F
B12: 1C11 (Nb-1C11) (VHH)
VHH: AVQLVESGGGLVLAGASLRLSCADSGSGRSLGTYGWFRQAPGKEREFVARISQRGGIDYTDSVKGRFTISRDNSKNTVNLQMTTLTPEDTAVYYCAADPDTVYSRSPALWKYWGQGTQVTVSS
B13: 4F8 (Nb-4F8) (VHH)
VHH: AVQLVESGGGTAQAGGPLRLSCKASGRSFSVGTMAWFRQVPGKEREFLVRDSQKGDGTVYAGSVEGRFTISRDYAKNTMDLQMNSLKPEDTAVYYCAADRGTVYGTREDLYDYWGQGTQVTVSS
B14: 4C7 (Nb-4C7) (VHH)
VHH: AVQLVESGGGLVQAGGSLRLSCATSGRTLGTYGWFRQAPGKEREFVARFLRNNGLTEYADSVKGRFTISRDDAKNTVELQMIMLKPEDTAVYYCTADPDAVYSRSPALWVYWGQGTQVTVSS
B15: 1D1 (Nb-1D1) (VHH)
VHH: AVQLVESGGGLVQAGGSLRLSCEASGHTFSSGTMGWFRQAPGMEREFVARINEKGDGTFYADSVKGRFTISRDYAKNTVYLQMNTLKPEDTAVYYCVADRGTVYGTREDLYDYWGQGTQVTVSS
B16: 4G10 (Nb-4G10) (VHH)
VHH: B15 VHH with S30N, A75T
B17: 2F7 (Nb-2F7) (VHH)
VHH: AVAGESGGGVVQAGGSLRLSCAASGRTFSPYAMGWFRQAPGKERESVAAISWSAGDTYYADSVKGRFTISRDNAKNTVYLQMNSLKPEDTAVYYCASRNTYFSDSGYSNFYAYDYWGQGTQVTVSS
B18: 3E9 (Nb-3E9) (VHH)
VHH: AVQLVESGGGLVQAGGSLSLSCAASGRTFSAGTMGWFRQAPGKERELIARVIKNGGSTYYTDSVKGRFTIAADFAKSTVYLQMNSLKPEDTALYYCAADRGAVFGTRQELYDDWGQGTQVTVSS
B19: MoNb-2E8 (VHH)
VHH: B8 VHH with P108R
notes: About 28 kDa with the His-SUMO tag; detected through SUMO (anti-SMT3) or the His tag; also called monovalent VHH antibody Nb-2E8; SUMO-tagged VHH; not shown: His6, N-terminal, kept; SUMO, N-terminal, kept
B20: MoNb-3C5 (VHH)
VHH: B8 VHH with V79A
notes: About 28 kDa with the His-SUMO tag; detected through SUMO (anti-SMT3) or the His tag; also called monovalent VHH antibody Nb-3C5; SUMO-tagged VHH; not shown: His6, N-terminal, kept; SUMO, N-terminal, kept
B21: Chikungunya/SL-CK1 E2 glycoprotein (natural protein)
chain: not shown
notes: E2 glycoprotein of Chikungunya virus strain SL-CK1, recombinant, about 40 kD on the blot; also called CHIKV E2; E2 protein; source: bought: Sino Biological

The first assay deals with B21.
Assay: not given
Conditions: not given
B1: the binding result is reported as “binds”.

On to B2, for which the binding result was “binds”.

As to B3, the binding result is “binds”.

On to B4, for which the binding result is given as “binds”.

B5: the binding result is recorded as “binds”.

In the case of B6, the binding result is given as “binds”.

For B7, the binding result is on record as “binds”.

Regarding B8, the binding result was “binds”.

As to B9, the binding result is “binds”.

Consider B10, for which the binding result is recorded as “binds”.

As to B11, the binding result is recorded as “binds”.

As to B12, the binding result was “binds”.

As to B13, the binding result is “binds”.

With B14, the binding result is “binds”.

B15: the binding result was “binds”.

For the molecule B16, the binding result is given as “binds”.

Regarding B17, the binding result is “binds”.

For B18, the binding result is listed as “binds”.

Another assay addresses T3, E2 glycoprotein of Chikungunya/human/China/GD134/2010, on virions and in infected Vero cells (Chikungunya virus …).
T3 construct: also called CHIKV virion; CHIKV virus
In words: […]; antibodies 10 ug/mL, […]. The settings on record: one partner purified.
Take B19: the binding result is “binds”.

For the molecule B20, the binding result is “binds”.

Another assay deals with T1, P61-GEEPNYQEEW
The assay can be described thus: ELISA; peptide ELISA: each 10-mer peptide coated at 1 ug/mL in carbonate buffer pH 9.6, 2 ug/mL antibodies, HRP anti-6xHis. The settings on record: both partners purified. For orientation: An ELISA detects its analyte on a solid surface through an enzyme-linked reagent.
B19: the binding result is “binds”.

For another assay, the target named is T2, P10-LKIQVSLQIG
Described as above. The settings on record: both partners purified.
B20: the binding result is “binds”.

Another assay deals with T4, BiNb-2E8 (alpaca).
T4 construct: VHH Nb-2E8, as the VHH of m1; flexible linker, printed as (GGGGS) x 3; VHH Nb-2E8, second copy, as the VHH of m1; Read here as two VHH in tandem on one chain; also called bivalent Nb-2E8; homo-dimer Nb-2E8 fused to Fc; source: HEK293 cells, pcDNA 3.4, purified (protein A)
In words: SPR; LSPR (OpenSPR, Nicoya): E2 protein immobilised on a COOH chip by EDC/NHS, antibodies flowed at 20 uL/min in PBS pH 7.4, 240 s binding, 360 s dissociation, One to One model. To be noted: both partners purified. In general terms: SPR reads the build-up and loss of mass on a sensor chip optically.
B21 returned a Kd of 2.59 nM.

A further assay addresses T5, BiNb-3C5 (alpaca).
T5 construct: VHH Nb-3C5, as the VHH of m2; flexible linker, printed as (GGGGS) x 3; VHH Nb-3C5, second copy, as the VHH of m2; In the sandwich ELISA it was coupled with horseradish peroxidase (HRP Conjugation Kit); also called bivalent Nb-3C5; homo-dimer Nb-3C5 fused to Fc; source: HEK293 cells, pcDNA 3.4, purified (protein A)
The description is as above. To be noted: both partners purified.
In turn, B21 showed a Kd of 20.7 nM.

For the next assay, the target named is T6, TriNb-2E8 (alpaca).
T6 construct: VHH Nb-2E8, as the VHH of m1; flexible linker, printed as (GGGGS) x 3; VHH Nb-2E8, second copy, as the VHH of m1; VHH Nb-2E8, third copy, as the VHH of m1; also called trivalent Nb-2E8; homo-trimer Nb-2E8 fused to Fc; source: HEK293 cells, pcDNA 3.4, purified (protein A)
Described as above. The settings on record: both partners purified.
Molecule B21 came in with a Kd of 4.52 nM. This counts as single-digit nanomolar.

For another assay, the target named is T7, TriNb-3C5 (alpaca).
T7 construct: VHH Nb-3C5, as the VHH of m2; flexible linker, printed as (GGGGS) x 3; VHH Nb-3C5, second copy, as the VHH of m2; VHH Nb-3C5, third copy, as the VHH of m2; also called trivalent Nb-3C5; homo-trimer Nb-3C5 fused to Fc; source: HEK293 cells, pcDNA 3.4, purified (protein A)
The description is as above. To be noted: both partners purified.
For the molecule B21, the Kd stood at 10.4 nM.

For another assay, the target named is B21. Described as above. To be noted: both partners purified.
B19 had a Kd of 101 nM.

Consider B20, for which binding was characterised by a dissociation constant (Kd) of 368 nM.
